The target of assay [1] is T1, Cdk5 expressed in HEK293T cells from a transfected eukaryotic expression plasmid (UniProt Q00535 1-292).
T1 construct: also called cyclin-dependent kinase 5
Description: immunohistochemical staining of transfected HEK293T cells (FIG. 2C).

For assay [2], the target named is T2, p25 generated in rat brain or rat striatal neurons by ischemia (MCAO or OGD) (rat, UniProt P61809 99-307 (mouse entry)).
T2 construct: Endogenous protein in tissue sections, lysates and primary cultures; also called p25 generated by MCAO; p25 generated in response to focal ischemia
Nature of the assay: detection of p25 in stroked rat brain; immunostains of striatum and cortex (FIG. 7D).

Assay [3] concerns the target T3, p35 (Mus musculus (Mouse), UniProt P61809 1-307).
T3 construct: also called Cdk5 cofactor p35
Description: immunoblot of striatal lysates from p25 over-expressing mice (FIG. 2B). For orientation: Immunoblotting shows a protein as a band on a membrane.

T2 sequence (P61809 99-307 limits assumed): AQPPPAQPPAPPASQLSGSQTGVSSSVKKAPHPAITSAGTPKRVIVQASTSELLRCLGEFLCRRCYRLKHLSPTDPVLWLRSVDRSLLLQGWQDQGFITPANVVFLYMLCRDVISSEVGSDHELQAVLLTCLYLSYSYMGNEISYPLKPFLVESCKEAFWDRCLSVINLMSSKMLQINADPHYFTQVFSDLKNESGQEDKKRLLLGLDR
T3 sequence (P61809 whole entry): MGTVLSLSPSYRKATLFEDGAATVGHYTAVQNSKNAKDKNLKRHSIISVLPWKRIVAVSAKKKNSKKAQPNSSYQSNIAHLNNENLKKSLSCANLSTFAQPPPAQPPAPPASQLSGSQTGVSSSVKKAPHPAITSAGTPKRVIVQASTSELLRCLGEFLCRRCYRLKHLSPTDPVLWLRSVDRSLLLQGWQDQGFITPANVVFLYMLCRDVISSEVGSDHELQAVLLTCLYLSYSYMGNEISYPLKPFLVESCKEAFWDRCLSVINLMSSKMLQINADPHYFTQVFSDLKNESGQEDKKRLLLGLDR

B1: anti-p25 monoclonal antibody 1C4 (antibody, V domains shown)
VH: QIQLEESGPELRKPGETVRISCKASGYTFTTAGMQWVQKMPGTGLKWIGWINTHSGVPKYAGEFTGRFDFSLETSASTAYLQIVNLKNEDTATYFCARYGKFGEMDYWGQGTSVTVSS
VL: IVMTQSPASLAVSLGQRATISCRSSETVDSDGNSFMHWYQQKPGQSPKLLLYLASTLESGVPARFSGSGSRTDFTLTIDPVEADDAATYYCHQNNEDPTFGGGTKLEIKR
notes: Mouse monoclonal antibody from hybridoma 1C4; also called p25 mAb; anti-p25 antibody
For B1, the binding result is recorded as “no binding” in assay [1], “binds” in assay [2] and “no binding” in assay [3].

For the origin of these results see patent US8728472 (University of Texas, dated 2014).
